Holding throughout (details): both partners purified
The target of assay [1] is T1, C1q (UniProt P02745 23-245; P02746 28-253; P02747 29-245).
T1 construct: also called purified C1q; intact C1q
The assay can be described thus: ELISA; AcPA adsorbed to the plate at 2.5 uM; purified C1q (1 ug) added in 50 mM HEPES pH 7.0 with various concentrations of NaCl, 1 h, room temperature; detected with goat anti-C1q.

The target in assay [2] is Wild-type recombinant ficolin H (ficolin-3) (human, UniProt O75636 24-299). The assay can be described thus: ELISA; ficolins adsorbed at 10 ug/mL, C1q at 25 nM, BSA at 30 ug/mL; biotinylated PA added at various concentrations in blocking buffer with 0.4 M NaCl, 1 h, room temperature; neutravidin-HRP. (An ELISA detects its analyte on a solid surface through an enzyme-linked reagent.)

The target in assay [3] is Wild-type recombinant ficolin M (ficolin-1) (human, UniProt O00602 30-326). Described as above.
Assay [4] deals with Wild-type recombinant ficolin L (ficolin-2) (human, UniProt Q15485 26-313). The assay is described as above.
Assay [5] deals with T1, C1q. The assay can be described thus: cross-linking; C1q and biotinylated PA at a ratio of 1:25 in 0.1 M Na2HPO4, 0.15 M NaCl, pH 8.0, room temperature 2.5 h, with or without 20 uM BS3; SDS-PAGE and blot with streptavidin and anti-C1q.

We go through 2 molecules from publication PMC4511006, “Peptide Inhibitor of Complement C1 (PIC1) Rapidly Inhibits Complement Activation after Intravascular Injection in Rats” (PLoS ONE, 2015).

Ends that are not written are not given here.

T1 sequence (P02745 23-245, chain 1 of 3): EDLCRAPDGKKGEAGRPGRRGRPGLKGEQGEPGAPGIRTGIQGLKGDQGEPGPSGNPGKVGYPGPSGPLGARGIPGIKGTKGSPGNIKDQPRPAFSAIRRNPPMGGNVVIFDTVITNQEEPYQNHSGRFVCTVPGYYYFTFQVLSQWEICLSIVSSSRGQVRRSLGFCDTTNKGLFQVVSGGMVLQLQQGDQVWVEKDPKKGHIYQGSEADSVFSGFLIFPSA
T1 sequence (P02746 28-253, chain 2 of 3): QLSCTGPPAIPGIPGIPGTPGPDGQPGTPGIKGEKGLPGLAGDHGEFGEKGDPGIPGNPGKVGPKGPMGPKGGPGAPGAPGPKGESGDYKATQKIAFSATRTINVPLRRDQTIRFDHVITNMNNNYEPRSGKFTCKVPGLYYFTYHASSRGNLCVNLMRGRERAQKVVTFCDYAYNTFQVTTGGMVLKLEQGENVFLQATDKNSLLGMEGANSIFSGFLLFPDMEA
T1 sequence (P02747 29-245, chain 3 of 3): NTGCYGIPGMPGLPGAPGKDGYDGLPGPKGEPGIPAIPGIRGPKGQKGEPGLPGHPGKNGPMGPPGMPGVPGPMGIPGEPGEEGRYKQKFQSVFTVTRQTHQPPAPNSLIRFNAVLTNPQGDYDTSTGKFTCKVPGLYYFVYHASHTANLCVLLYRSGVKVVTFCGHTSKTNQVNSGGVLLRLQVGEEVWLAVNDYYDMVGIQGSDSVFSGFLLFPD
Chain of Wild-type recombinant ficolin H (ficolin-3) (O75636 24-299): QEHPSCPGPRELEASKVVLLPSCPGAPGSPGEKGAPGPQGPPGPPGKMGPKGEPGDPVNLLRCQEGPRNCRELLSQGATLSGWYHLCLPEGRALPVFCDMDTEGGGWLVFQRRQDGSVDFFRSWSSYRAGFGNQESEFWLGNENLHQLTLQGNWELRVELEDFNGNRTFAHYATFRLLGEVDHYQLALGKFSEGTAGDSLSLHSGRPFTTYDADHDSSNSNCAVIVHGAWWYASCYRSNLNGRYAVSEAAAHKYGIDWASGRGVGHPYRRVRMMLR
Chain of Wild-type recombinant ficolin L (ficolin-2) (Q15485 26-313): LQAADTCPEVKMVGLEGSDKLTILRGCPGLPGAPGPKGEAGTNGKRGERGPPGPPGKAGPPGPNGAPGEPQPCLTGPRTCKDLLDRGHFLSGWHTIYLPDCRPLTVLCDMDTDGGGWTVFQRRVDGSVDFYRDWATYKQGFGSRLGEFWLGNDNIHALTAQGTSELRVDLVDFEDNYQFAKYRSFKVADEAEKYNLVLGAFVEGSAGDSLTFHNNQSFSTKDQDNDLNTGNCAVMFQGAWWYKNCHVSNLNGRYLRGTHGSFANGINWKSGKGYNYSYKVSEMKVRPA
Chain of Wild-type recombinant ficolin M (ficolin-1) (O00602 30-326): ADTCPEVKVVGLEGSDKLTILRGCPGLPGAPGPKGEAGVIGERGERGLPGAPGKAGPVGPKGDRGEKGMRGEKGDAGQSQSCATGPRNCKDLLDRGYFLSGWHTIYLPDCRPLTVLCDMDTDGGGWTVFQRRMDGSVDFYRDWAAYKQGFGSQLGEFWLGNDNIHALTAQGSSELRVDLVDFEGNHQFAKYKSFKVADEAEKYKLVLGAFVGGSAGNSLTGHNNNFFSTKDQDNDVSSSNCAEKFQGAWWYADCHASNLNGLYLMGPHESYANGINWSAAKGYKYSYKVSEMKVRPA

B1: Acetylated PA (AcPA) (peptide)
peptide: IALILEPICCQERAA
modifications: cysteine pairing not given here; also: acetylated, position not given here
notes: Polar Assortant (PA), 15 amino-acid derivative obtained by extensive modification of a 15-residue peptide of the human astrovirus type 1 coat protein; also called acetylated Polar Assortant peptide; PIC1; source: synthetic peptide, bought: New England Peptide (>=90% purity)
Take B1: the binding result with C1q [1] was “binds”.

B2: C-terminally biotinylated PA peptide (peptide)
peptide: IALILEPICCQERAA-biotin
modifications: cysteine pairing not given here
notes: Polar Assortant (PA), 15 amino-acid derivative of a human astrovirus type 1 coat protein peptide; Detected by its biotin (streptavidin IR 680 or neutravidin-HRP); source: synthetic peptide, bought: New England Peptide (>=90% purity)
Turning to B2, the binding result (in assay [2]; in assay [3]; in assay [4]; with C1q [5]) was “binds” each time.
